Test results from patent US20220016183A1, “EXOSOME AND VARIOUS USES THEREOF” (PROSTEMICS CO., LTD., priority 2018, published 2022).

Experiments:
[1] = tested on: keratinocytes (HaCaT); experiment: Keratinocyte (HaCaT) proliferation; assay type: cell-based, human; conditions: 500 ng/ml, 48 hours, DMEM 1% FBS
Protocol: (§1) After 48 hours, a change in cell viability was measured, and results thereof are shown in Tables 8 and 9 below and FIGS. 9 and 10.

[2] = tested on: human fibroblasts (HDF); experiment: Skin fibroblast (HDF) proliferation; assay type: cell-based; conditions: 500 ng/ml, 48 hours, DMEM 1% FBS
Protocol: as §1

[3] = tested on: adipose-derived stem cells (ASC); experiment: Adipose-derived stem cell (ASC) proliferation, CCK-8; assay type: cell-based; conditions: positive control of Table 10 (FBS, 10 wt. % in medium), 24 hours
Protocol: Adipocytes derived stem cells (ADCs) were cultured in DMEM medium (Invitrogen) containing 10% fetal calf serum and 1% penicillin/streptomycin at 37° C. and 5% CO2 conditions, and the medium was changed every 3 days. After culturing for 24 hours, the cells were treated under the conditions shown in Table 10 below, and further cultured for 24 hours. After removing the treated material from each cell and dispensing the CCK-8 solution thereto, the cells were incubated at 37° C. in a CO2 incubator for 2 hours, and absorbance was measured at 450 nm.

B1: E1: EGF, positive control at 500 ng/ml (protein, UniProt P01133 23-1207, looked up)
Pro-epidermal growth factor: PQHWSCPEGTLAGNGNSTCVGPAPFLIFSHGNSIFRIDTEGTNYEQLVVDAGVSVIMDFHYNEKRIYWVDLERQLLQRVFLNGSRQERVCNIEKNVSGMAINWINEEVIWSNQQEGIITVTDMKGNNSHILLSALKYPANVAVDPVERFIFWSSEVAGSLYRADLDGVGVKALLETSEKITAVSLDVLDKRLFWIQYNREGSNSLICSCDYDGGSVHISKHPTQHNLFAMSLFGDRIFYSTWKMKTIWIANKHTGKDMVRINLHSSFVPLGELKVVHPLAQPKAEDDTWEPEQKLCKLRKGNCSSTVCGQDLQSHLCMCAEGYALSRDRKYCEDVNECAFWNHGCTLGCKNTPGSYYCTCPVGFVLLPDGKRCHQLVSCPRNVSECSHDCVLTSEGPLCFCPEGSVLERDGKTCSGCSSPDNGGCSQLCVPLSPVSWECDCFPGYDLQLDEKSCAASGPQPFLLFANSQDIRHMHFDGTDYGTLLSQQMGMVYALDHDPVENKIYFAHTALKWIERANMDGSQRERLIEEGVDVPEGLAVDWIGRRFYWTDRGKSLIGRSDLNGKRSKIITKENISQPRGIAVHPMAKRLFWTDTGINPRIESSSLQGLGRLVIASSDLIWPSGITIDFLTDKLYWCDAKQSVIEMANLDGSKRRRLTQNDVGHPFAVAVFEDYVWFSDWAMPSVMRVNKRTGKDRVRLQGSMLKPSSLVVVHPLAKPGADPCLYQNGGCEHICKKRLGTAWCSCREGFMKASDGKTCLALDGHQLLAGGEVDLKNQVTPLDILSKTRVSEDNITESQHMLVAEIMVSDQDDCAPVGCSMYARCISEGEDATCQCLKGFAGDGKLCSDIDECEMGVPVCPPASSKCINTEGGYVCRCSEGYQGDGIHCLDIDECQLGEHSCGENASCTNTEGGYTCMCAGRLSEPGLICPDSTPPPHLREDDHHYSVRNSDSECPLSHDGYCLHDGVCMYIEALDKYACNCVVGYIGERCQYRDLKWWELRHAGHGQQQKVIVVAVCVVVLVMLLLLSLWGAHYYRTQKLLSKNPKNPYEESSRDVRSRRPADTEDGMSSCPQPWFVVIKEHQDLKNGGQPVAGEDGQAADGSMQPTSWRQEPQLCGMGTEQGCWIPVSSDKGSCPQVMERSFHMPSYGTQTLEGGVEKPHSLLSANPLWQQRALDPPHQMELTQ
modifications: Pro-epidermal growth factor
notes: EGF, positive control at 500 ng/ml
[1]
  HaCaT proliferation rate (%): 160.38%
[2]
  HDF proliferation rate (%): 143.04%
[3]
  ASC proliferation rate (%): 186.10%
